This note sets out measurements from patent publication US20200377604.

Series [1] is described as follows: gel filtration of the Fc, mAU at 280 nm against time; low, broad peak at 19.477 min. In general terms: Size exclusion chromatography separates by hydrodynamic size, large species first.
Series [2] can be described thus: gel filtration of the Fc, mAU at 280 nm against time; low, broad peak at 19.455 min.

Numbering of substitutions follows the chain as printed. In names and notes the source's numbering stands.

B1: knob Fc F241S/F243R (protein)
chain: DKTHTSPPSPAPELLGGPSVSLRPPKPKDTLMISRTPEVTCVVVDVSHEDPEVKFNWYVDGVEVHNAKTKPREEQYNSTYRVVSVLTVLHQDWLNGKEYKCKVSNKALPAPIEKTISKAKGQPREPQVYTLPPSREEMTKNQVSLWCLVKGFYPSDIAVEWESNGQPENNYKTTPPVLDSDGSFFLYSKLTVDKSRWQQGNVFSCSVMHEALHNHYTQKSLSLSPGK
Consider B1, for which the “Area of the small peak ahead of the monomer peak (dimer position; not labelled Dimer on the sheet)” value in series [1] is “Area: 1943.99”.

B2: knob Fc F241R/F243S (protein)
chain: B1 chain with S21R, R23S
As for B2, the “Area of the small peak ahead of the monomer peak (dimer position; not labelled Dimer on the sheet)” value in series [2] was “Area: 3287.62”.
